Results as given in patent US20140357838A1, “N-Terminally Modified Insulin Derivatives” (Novo Nordisk A/S, priority 2011, published 2014).
Starred links: 1 amine or outer side, 2 acyl side, 3 side chain; linkers in the order of their positions; H or OH if unused. Positions of bridges follow the written chain, without caps; N, C: chain ends. Groups on a side chain read outwards from the residue. Chains are numbered I, II in the order given. No end group written: not given here. *: point of attachment. Phe(Nα-CONH2) = NC(=O)N[C@@H](Cc1ccccc1)C(=O)*; C20 diacid = O=C(O)CCCCCCCCCCCCCCCCCCC(=O)*; C18 diacid = O=C(O)CCCCCCCCCCCCCCCCC(=O)*; NMe2Phe = CN(C)[C@@H](Cc1ccccc1)C(=O)*; γGlu = O=C(O)[C@H](CCC(=O)[*:2])N[*:1]; Hydantoyl = NC(=O)NCC(=O)*; AEEA = NCCOCCOCC(=O)O; Me2Gly = CN(C)CC(=O)*

How the values were obtained:
[1] = biological target: T1, human insulin receptor (Homo sapiens, UniProt P06213); experiment: Insulin receptor affinity, SPA assay with […] HSA in binding buffer; details: relative to the affinity of human insulin
T1 sequence (P06213 28-746 isoform P06213-2 limits assumed): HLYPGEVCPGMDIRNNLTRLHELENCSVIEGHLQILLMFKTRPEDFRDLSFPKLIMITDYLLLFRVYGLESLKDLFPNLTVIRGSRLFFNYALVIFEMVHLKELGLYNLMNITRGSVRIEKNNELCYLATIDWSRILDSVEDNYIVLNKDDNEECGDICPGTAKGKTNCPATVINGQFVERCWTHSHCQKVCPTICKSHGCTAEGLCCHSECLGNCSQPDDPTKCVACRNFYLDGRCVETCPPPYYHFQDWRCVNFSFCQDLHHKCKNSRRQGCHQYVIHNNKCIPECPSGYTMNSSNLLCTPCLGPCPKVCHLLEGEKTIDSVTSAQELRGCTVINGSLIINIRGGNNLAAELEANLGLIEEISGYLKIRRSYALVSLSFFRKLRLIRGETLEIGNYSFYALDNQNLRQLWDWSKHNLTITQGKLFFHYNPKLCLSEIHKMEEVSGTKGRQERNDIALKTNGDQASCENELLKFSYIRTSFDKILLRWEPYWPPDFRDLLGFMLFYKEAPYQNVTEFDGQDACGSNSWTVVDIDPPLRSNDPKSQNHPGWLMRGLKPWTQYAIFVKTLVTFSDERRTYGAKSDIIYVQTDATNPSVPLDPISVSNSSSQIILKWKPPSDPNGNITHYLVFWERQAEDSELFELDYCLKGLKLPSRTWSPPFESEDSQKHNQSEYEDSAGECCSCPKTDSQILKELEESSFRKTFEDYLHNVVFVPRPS
T1 sequence (P06213 763-1382 partner limits assumed): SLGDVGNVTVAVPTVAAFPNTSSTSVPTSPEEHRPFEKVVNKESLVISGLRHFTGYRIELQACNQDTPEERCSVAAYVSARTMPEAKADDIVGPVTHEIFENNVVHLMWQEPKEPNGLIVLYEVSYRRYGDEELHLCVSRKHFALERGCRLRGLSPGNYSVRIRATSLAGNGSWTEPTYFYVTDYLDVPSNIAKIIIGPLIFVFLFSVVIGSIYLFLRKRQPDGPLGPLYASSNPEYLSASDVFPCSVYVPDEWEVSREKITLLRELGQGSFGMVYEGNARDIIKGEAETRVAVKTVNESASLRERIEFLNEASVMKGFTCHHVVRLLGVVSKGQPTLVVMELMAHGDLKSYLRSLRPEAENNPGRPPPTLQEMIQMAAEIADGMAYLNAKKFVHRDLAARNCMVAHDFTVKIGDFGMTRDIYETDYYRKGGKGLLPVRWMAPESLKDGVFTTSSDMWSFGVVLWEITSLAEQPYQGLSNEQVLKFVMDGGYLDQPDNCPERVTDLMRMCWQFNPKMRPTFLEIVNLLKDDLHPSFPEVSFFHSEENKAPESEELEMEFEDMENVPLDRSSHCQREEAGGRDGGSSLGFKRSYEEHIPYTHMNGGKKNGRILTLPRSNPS
Procedure: (§1) SPA-PVT antibody-binding beads, anti-mouse reagent (Amersham Bio-sciences, Cat No. PRNQ0017) are mixed with 25 ml of binding buffer (100 mM HEPES pH 7.8; 100 mM sodium chloride, 10 mM MgSO4, 0.025% Tween-20). […] A total of 100 μl reagent mix is then added to each well in the Packard Optiplate and a dilution series of the N-terminally modified insulin is made in the Optiplate from appropriate samples. The samples are then incubated for 16 hours while gently shaken. The phases are the then separated by centrifugation for 1 min and the plates counted in a Topcounter.

[2] = biological target: T1, human insulin receptor; experiment: Insulin receptor affinity, SPA antibody capture assay (0% HSA); assay type: binding; details: relative to the affinity of human insulin
Procedure: as §1

[3] = test system: duodenum lumen enzymes; experiment: Degradation of insulin analogs using duodenum lumen enzymes; assay type: in vitro ADME; details: rat duodenum lumen enzymes, 100 mM Hepes pH 7.4, 37° C.; degradation half time divided by that of reference insulin
Procedure: Degradation of insulin analogs using duodenum lumen enzymes (prepared by filtration of duodenum lumen content) from SPD rats. The assay is performed by a robot in a 96 well plate (2 ml) with 16 wells available for insulin analogs and standards. Insulin analogs ˜15 μM are incubated with duodenum enzymes in 100 mM Hepes, pH=7.4 at 37° C., samples are taken after 1, 15, 30, 60, 120 and 240 min and reaction quenched by addition of TFA. Intact insulin analogs at each point are determined by RP-HPLC. […] The amount of enzymes added for the degradation is such that the half time for degradation of the reference insulin is between 60 min and 180 min.

[4] = Hydrophobicity by isocratic reverse phase HPLC; assay type: physicochemical; details: k'rel, isocratic RP-HPLC, pH 7.3, human insulin = 1
Procedure: The hydrophobicity of an N-terminally modified insulin is found by reverse phase HPLC run under isocratic conditions. […] The hydrophobicity, k′rel, is calculated as: k′relderiv=((tderiv−t0)(tref−t0)*k′relref. Using HI as reference: k′relref=k′relHI=1. The void time of the HPLC system, t0, is determined by injecting 5 μl of 0.1 mM NaNO3. Running conditions:
Column: Lichrosorb RP-C18, 5 μm, 4×250 mm
Buffer A: 0.1 M natrium phosphate pH 7.3, 10 vol % CH3CN
After running an initial gradient, the isocratic level for running the derivative and reference (for example HI) is chosen, and the elution times of the derivative and reference under isocratic conditions are used in the above equation to calculate k′relderiv.

[5] = Thioflavin T (ThT) fibrillation assay; assay type: physicochemical; details: same experiment as prior art derivatives, 37° C., 960 rpm, pH 7.4, mean ± SD
Excerpt: This has traditionally been measured by visual inspection of the sample. However, that kind of measurement is very subjective and depending on the observer. Therefore the application of a small molecule indicator probe is much preferred. […] The time course for fibril formation can be described by a sigmoidal curve with the following expression (Nielsen at al. Biochemistry 40, 6036-6046, 2001):
Here, F is the ThT fluorescence at the time t. The constant t0 is the time needed to reach 50% of maximum fluorescence. The two important parameters describing fibril formation are the lag-time calculated by t0-2[…] and the apparent rate constant kapp=1/{tilde over (□)}.
Samples were prepared freshly before each assay. Each analog was dissolved in 2 mM sodium phosphate, pH=7.4. Thioflavin T was added to the samples from a stock solution in water to a final concentration of 1 μM. Sample aliquots of 200 μl were placed in a 96 well microtiter plate (Packard Optiplate™-96, white polystyrene). Usually four replica of each sample (corresponding to one test condition) were placed in one column of wells. The plate was sealed with Scotch Pad (Qiagen).
Incubation at given temperature, shaking and measurements of the ThT fluorescence emission were done in either a Fluoroskan Ascent FL or Varioskan fluorescence plate reader (thermo Labsystems). The temperature was adjusted to 37° C. […] Fluorescence measurements were done using excitation through a 444 nm filter and measurement of emission through a 485 nm filter.
Each run was initiated by incubating the plate at the assay temperature for 10 min. The plate was measured every 20 minutes for typically 45 hours. Between each measurement, the plate was shaken and heated as described above.
The measurement data points were saved in Microsoft Excel format for further processing and curve drawing and fitting was performed using Graph Pad Prism. […] The data points are typically a mean of four samples. Only data obtained in the same experiment (i.e. samples on the same plate) are presented in the same graph ensuring a relative measure of fibrillation between the individual samples of one assay rather then comparison between different assays. The data set may be fitted to Eq. (1). However since the full sigmoidal curves are not usually achieved during the measurement time, the degree of fibrillation is expressed as ThT fluorescence at various time points calculated as the mean of the four samples and shown with the standard deviation

[6] = Chemical stability of insulin derivatives in 2 mM phosphate (SEC-HPLC and RP-HPLC); assay type: physicochemical; details: 4 weeks 37° C. minus 5° C. start sample; for HMWP Formation (%) (4 weeks 37° C.- 0 weeks 5° C.): pH 7.5, SEC-HPLC
Procedure: Chemical stability of an insulin derivative is assessed after incubating insulin derivative in 2 mM phosphate, pH=7.5 at 37° C. for up to 8 weeks. Formation of high molecular weight products (HMWP) is determined by SEC HPLC analysis after 0, 2, 4 and optionally 8 weeks. The results of the SEC method are given as a difference between HMWP formation at 37° C. and 5° C. start sample as a percentage of total absorbance at 215 nm. Chemical degradation products are determined by RP HPLC analysis after 0, 2, 4 and optionally 8 weeks. The results of the RP method are given as a difference between chemical degradation observed at 37° C. and 5° C. start sample as a percentage of total absorbance at 215 nm.
• Solvent: 500 mM NaCl, 10 mM NaH2PO4, 5 mM H3PO4, 50% (v/v) 2-propanol • Flow: 0.5 ml/min • Run time: 30 min • UV Detection: 215 nm • Column: Insulin HMWP column from Waters 7.8×300 mm • Temperature: 50° C.
• Solvent A: 0.09M phosphate buffer pH 3.6 (di-ammoniumhydrogenphosphate), 10% MeCN (v/v) • Solvent B: 80% MeCN (v/v %) • Flow: 0.3 ml/min • Runtime: 33 min • UV Detection: 215 nm • Column: Waters Acquity BEH130 C18 Column 1.7 μm, 150×2.1 mm • Temperature: 50° C. • Gradient: […]

[7] = test system: Primary rat adipocytes; experiment: Lipogenesis in rat adipocytes; assay type: cell-based; details: relative potency vs human insulin
Excerpt: As a measure of in vitro potency of the insulins of the invention, lipogenesis can be used.
The labelled glucose is converted into extractable lipids in a dose dependent way, resulting in full dose response curves.

Substance | Relative IR-A affinity (@ […] HSA) (%)e [1] [%] | Relative IR-A affinity (@ 0% HSA) (%) [2] [%] | Stability towards duodenum lumen enzymes (fold relative to A14E, B25H, desB30 human insulin) [3] [fold] | Hydrophobicity rel. to human insulin [4] | ThT 0 h [5] | ThT 5 h [5] | ThT 10 h [5] | ThT 30 h [5] | ThT 40 h [5] | Chemical degradation (%) (4 weeks 37° C.- 0 weeks 5° C.) ([6]; pH 7.5, RP-HPLC) | HMWP Formation (%) (4 weeks 37° C.- 0 weeks 5° C.) [6] | Lipogenesis in rat adipocytres (@ 0.1% HSA) rel. to human insulin (%) [7] [%]
I: NMe2Phe-VCQHLCGSHLVEALHLVCGERGFHYTPK([AEEA-AEEA-γGlu-C20 diacid]) / II: Me2Gly-IVEQCCTSCCSLEQLENYCN (disulfide I:2-II:9, I:6-II:6, I:18-II:19, II:5-II:10) [Example 28, A1(N^α,N^α-Dimethyl), A10C, A14E, B1(N^α,N^α-dimethyl), B3C, B16H, B25H, B29K(N^εeicosanedioyl-gGlu-2×OEG), desB30 Human Insulin] | 0.01 | 0.1 | 1.6 | 0.298 | – | – | – | – | – | – | – | –
I: NMe2Phe-VCQHLCGSHLVEALYLVCGERGFHYPK([AEEA-AEEA-γGlu-C18 diacid]) / II: Me2Gly-IVEQCCTSCCSLEQLENYCN (disulfide I:2-II:9, I:6-II:6, I:18-II:19, II:5-II:10) [Example 11, A1(N^α,N^α-Dimethyl), A10C, A14E, B1(N^α,N^α-dimethyl), B3C, B25H, desB27, B29K(N^εoctadecanedioyl-gGlu-2×OEG), desB30 Human Insulin] | 0.04 | 0.6 | – | 0.095 | 31 ± 0.4 | 23 ± 0.4 | 23 ± 0.6 | 21 ± 0.2 | 21 ± 0.3 | 3.2 | −0.2 | –
I: NMe2Phe-VCQHLCGSHLVEALYLVCGERGFHYTPK([AEEA-AEEA-γGlu-C20 diacid]) / II: Me2Gly-IVEQCCTSCCSLEQLENYCN (disulfide I:2-II:9, I:6-II:6, I:18-II:19, II:5-II:10) [Example 2, A1(N^α,N^α-Dimethyl), A10C, A14E, B1(N^α,N^α-dimethyl), B3C, B25H, B29K(N^εeicosanedioyl-gGlu-2×OEG), desB30 Human Insulin] | – | – | – | 0.38 | 35 ± 0.9 | 22 ± 0.4 | 22 ± 0.3 | 20 ± 0.3 | 19 ± 0.3 | – | 0.0 | 0.025
I: {Phe(Nα-CONH2)}-VCQHLCGSHLVEALYLVCGERGFFYPK([AEEA-AEEA-γGlu-C18 diacid]) / II: Hydantoyl-IVEQCCTSCCSLEQLENYCN (disulfide I:2-II:9, I:6-II:6, I:18-II:19, II:5-II:10) [Example 33, A1(N^α-Carbamoyl), A10C, A14E, B1(N^α-carbamoyl), B3C, desB27, B29K(N^εoctadecanedioyl-gGlu-2×OEG), desB30 Human Insulin] | – | 0.6 | 1.6 | – | – | – | – | – | – | – | – | –
I: {Phe(Nα-CONH2)}-VCQHLCGSHLVEALYLVCGERGFHYPK([AEEA-AEEA-γGlu-C20 diacid]) / II: Hydantoyl-IVEQCCTSCCSLEQLENYCN (disulfide I:2-II:9, I:6-II:6, I:18-II:19, II:5-II:10) [Example 46, A1(N^α-Carbamoyl), A10C, A14E, B1(N^α-carbamoyl), B3C, B25H, desB27, B29K(N^εeicosanedioyl-gGlu-2×OEG), desB30 Human Insulin] | 0.01 | 0.1 | 1.2 | 0.132 | – | – | – | – | – | – | – | –
I: {Phe(Nα-CONH2)}-VCQHLCGSHLVEALYLVCGERGFHYPK([γGlu-C18 diacid]) / II: Hydantoyl-IVEQCCTSCCSLEQLENYCN (disulfide I:2-II:9, I:6-II:6, I:18-II:19, II:5-II:10) [Example 34, A1(N^αCarbamoyl), A10C, A14E, B1(N^αcarbamoyl), B3C, B25H, desB27, B29K(N^εoctadecanedioyl-gGlu), desB30 Human Insulin] | 0.00 | 0.1 | 1.8 | – | 20 ± 0.1 | 13 ± 0.7 | 13 ± 0.8 | 13 ± 0.4 | 13 ± 0.3 | – | – | –
